How the values were obtained:
Experiment in all cases: co-IP
S273A-paxillin-GFP = S273A-paxillin-GFP (UniProt P49024 1-559, S273A)
S273D-paxillin-GFP = S273D-paxillin-GFP (UniProt P49024 1-559, S273D)
[1] = molecular target: T1, FLAG-GIT1 (synthesized in vitro) (UniProt Q9Y2X7 1-761)
T1 sequence: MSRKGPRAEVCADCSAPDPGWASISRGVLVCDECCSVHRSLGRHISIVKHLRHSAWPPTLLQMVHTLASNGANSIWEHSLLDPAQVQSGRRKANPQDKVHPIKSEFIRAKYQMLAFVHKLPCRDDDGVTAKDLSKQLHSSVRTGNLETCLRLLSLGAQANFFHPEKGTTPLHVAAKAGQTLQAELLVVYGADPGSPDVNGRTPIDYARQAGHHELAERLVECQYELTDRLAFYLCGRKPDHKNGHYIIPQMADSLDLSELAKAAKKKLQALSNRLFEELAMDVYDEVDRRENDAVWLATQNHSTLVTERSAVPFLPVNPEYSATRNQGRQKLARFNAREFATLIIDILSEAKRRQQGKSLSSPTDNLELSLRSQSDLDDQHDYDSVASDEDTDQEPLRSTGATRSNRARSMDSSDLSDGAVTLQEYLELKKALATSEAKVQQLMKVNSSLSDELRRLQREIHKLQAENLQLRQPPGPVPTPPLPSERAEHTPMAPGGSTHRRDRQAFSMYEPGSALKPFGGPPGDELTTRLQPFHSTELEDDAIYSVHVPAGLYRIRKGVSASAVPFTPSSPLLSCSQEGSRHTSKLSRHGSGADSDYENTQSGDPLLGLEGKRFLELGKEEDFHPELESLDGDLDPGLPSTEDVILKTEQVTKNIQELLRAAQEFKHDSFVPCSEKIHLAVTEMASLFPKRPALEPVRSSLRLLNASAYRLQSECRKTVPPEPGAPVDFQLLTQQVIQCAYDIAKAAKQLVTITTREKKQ

Chain of S273A-paxillin-GFP (P49024 whole entry S273A): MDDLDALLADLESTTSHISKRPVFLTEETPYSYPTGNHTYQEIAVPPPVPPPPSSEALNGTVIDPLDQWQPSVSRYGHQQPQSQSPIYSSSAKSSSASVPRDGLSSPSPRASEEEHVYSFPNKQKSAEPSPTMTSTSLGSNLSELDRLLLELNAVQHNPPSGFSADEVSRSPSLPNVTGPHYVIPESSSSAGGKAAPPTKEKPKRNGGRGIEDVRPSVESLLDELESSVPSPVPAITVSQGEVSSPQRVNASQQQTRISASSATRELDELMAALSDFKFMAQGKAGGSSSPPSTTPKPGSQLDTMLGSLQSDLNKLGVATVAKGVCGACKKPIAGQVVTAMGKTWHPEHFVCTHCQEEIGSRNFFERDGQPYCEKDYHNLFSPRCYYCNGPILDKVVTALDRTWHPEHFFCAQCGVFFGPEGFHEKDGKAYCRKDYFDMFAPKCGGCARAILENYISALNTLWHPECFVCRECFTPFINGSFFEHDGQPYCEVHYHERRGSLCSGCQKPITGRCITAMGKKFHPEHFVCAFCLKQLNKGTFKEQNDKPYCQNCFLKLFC
Chain of S273D-paxillin-GFP (P49024 whole entry S273D): as the sequence (P49024 whole entry S273A) above, with A273D counted along it

Binder	fold decrease of GIT1 binding against WT-paxillin (S273A-paxillin-GFP) [fold]	fold increase of GIT1 binding against WT-paxillin (S273D-paxillin-GFP) [fold]	fold increase of phospho–S273-paxillin bound to FLAG-GIT1 with CA- versus KD-PAK [1] [fold]
FLAG-GIT1 (expressed in CHO-K1 cells) (natural protein) MSRKGPRAEVCADCSAPDPGWASISRGVLVCDECCSVHRSLGRHISIVKHLRHSAWPPTLLQMVHTLASNGANSIWEHSLLDPAQVQSGRRKANPQDKVHPIKSEFIRAKYQMLAFVHKLPCRDDDGVTAKDLSKQLHSSVRTGNLETCLRLLSLGAQANFFHPEKGTTPLHVAAKAGQTLQAELLVVYGADPGSPDVNGRTPIDYARQAGHHELAERLVECQYELTDRLAFYLCGRKPDHKNGHYIIPQMADSLDLSELAKAAKKKLQALSNRLFEELAMDVYDEVDRRENDAVWLATQNHSTLVTERSAVPFLPVNPEYSATRNQGRQKLARFNAREFATLIIDILSEAKRRQQGKSLSSPTDNLELSLRSQSDLDDQHDYDSVASDEDTDQEPLRSTGATRSNRARSMDSSDLSDGAVTLQEYLELKKALATSEAKVQQLMKVNSSLSDELRRLQREIHKLQAENLQLRQPPGPVPTPPLPSERAEHTPMAPGGSTHRRDRQAFSMYEPGSALKPFGGPPGDELTTRLQPFHSTELEDDAIYSVHVPAGLYRIRKGVSASAVPFTPSSPLLSCSQEGSRHTSKLSRHGSGADSDYENTQSGDPLLGLEGKRFLELGKEEDFHPELESLDGDLDPGLPSTEDVILKTEQVTKNIQELLRAAQEFKHDSFVPCSEKIHLAVTEMASLFPKRPALEPVRSSLRLLNASAYRLQSECRKTVPPEPGAPVDFQLLTQQVIQCAYDIAKAAKQLVTITTREKKQ	2	~3	
phospho–S273-paxillin (untagged WT-paxillin synthesized in vitro and incubated with CA-myc-PAK1) (natural protein, phosphoserine at 273) not shown			7

Source: PMC2063867 (The Journal of Cell Biology, 2006)
